pKd: −log10 of the molar value.
Tests used:
LRP2 CR3435 (human) = LRP2 CR3435 (human) (UniProt P98164); experiment: solid-phase assay: CR protein coated on the plate, RAP-IDU titrated, bound iduronidase activity read as rfu
LRP1 CR3-5 (human) = experiment: solid-phase assay, coated CR protein, RAP-IDU detected by iduronidase activity
GFRα-1 [1] = experiment: solid-phase assay (ELISA): RAP-GDNF concentration varied on GFRalpha-1, OD 450 nm; per paragraph 304 GFRalpha-1 coated on the plate and bound protein detected with anti-GDNF mAb
GFRα-1 [2] = experiment: solid-phase binding assay (FIG. 11)
[3] = biological target: LRP2 CR89 Y1042W V1047D (human) (UniProt P98164); experiment: solid-phase assay, coated CR protein, anti-RAP, OD450
Sequence of LRP2 CR89 Y1042W V1047D (human) (P98164 1022-1105 Y1043W/V1048D limits assumed): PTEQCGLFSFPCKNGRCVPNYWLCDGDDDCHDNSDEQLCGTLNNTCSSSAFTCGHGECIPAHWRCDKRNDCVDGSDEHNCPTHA

Sequence of LRP1 CR3-5 (human) (Q07954 852-973): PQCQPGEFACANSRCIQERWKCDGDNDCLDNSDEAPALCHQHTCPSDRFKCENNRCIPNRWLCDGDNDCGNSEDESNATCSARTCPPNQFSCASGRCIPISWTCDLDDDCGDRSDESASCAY

RAP-IDU (fusion of RAP and human α-L-iduronidase) (from UniProt P35475 28-653)
pKd (LRP2 CR3435 (human)): 6.14 | pKd (LRP1 CR3-5 (human)): 8.52

RAP-GDNF fusion protein (from UniProt P39905 78-211)
EC50 (read off the curve) (GFRα-1 [1]): 2 ng/mL | Kd (GFRα-1 [2]): 5 ng/mL

wild-type RAP d3 (from UniProt P30533 235-353) (ligand)
% max bind [3]: 11%

From patent US20090269346A1
